Consider one substance from PMC12913813.

The assay addresses Smog::GFP (Drosophila). Description: fluorescence correlation spectroscopy.

In the case of Smog::GFP (receptor), the estimated fraction of dimers (monomer/dimer model), WT embryos is 68%; the estimated fraction of dimers (monomer/dimer model), control embryos is 79%; the estimated fraction of dimers (monomer/dimer model), gprk2 RNAi embryos was 100%; the estimated fraction of trimers (monomer/trimer model), control embryos was 21%. In addition, the estimated fraction of trimers (monomer/trimer model), gprk2 RNAi embryos was 76%.
